Target: Ubiquitin-AMC (Ub-AMC) (UniProt P0CG48)

Substance: CidB* (CidB-C1025A catalytic mutant)
- Ub-AMC hydrolysis: The CidB-C1025A catalytic mutant was inactive against Ub-AMC (data not shown)
